Consider 3 molecules from patent US20220170038A1 (COMMONWEALTH SCIENTIFIC INDUSTRIAL RESEARCH ORGANISATION, published 2022).

First the molecules themselves.
B1: scar9::GG::NifU::TS (MPP-processed product of the MTP-FAγ51::NifU::TwinStrep fusion polypeptide encoded by SN166) (other)
chain: not shown
notes: Expressed in N. benthamiana leaves with mitochondrial targeting; N-terminal analysis and the tryptic peptide ISTQVVR confirmed cleavage at the intended MPP site; SEC indicated a heterotetramer of 2 NifS and 2 NifU; also called scar9-NifU::TS; scar9-NifU-TwinStrep

For assay [1], the target named is T1, scar9::GG::NifS::HA (MPP-processed product of the MTP-FAγ51::NifS::HA fusion polypeptide encoded by SN31) (Klebsiella oxytoca, UniProt P05344 1-397).
T1 construct: This processed form was the one found in the eluate with NifU::TS; also called scar9-NifS::HA; processed NifS
T1 sequence: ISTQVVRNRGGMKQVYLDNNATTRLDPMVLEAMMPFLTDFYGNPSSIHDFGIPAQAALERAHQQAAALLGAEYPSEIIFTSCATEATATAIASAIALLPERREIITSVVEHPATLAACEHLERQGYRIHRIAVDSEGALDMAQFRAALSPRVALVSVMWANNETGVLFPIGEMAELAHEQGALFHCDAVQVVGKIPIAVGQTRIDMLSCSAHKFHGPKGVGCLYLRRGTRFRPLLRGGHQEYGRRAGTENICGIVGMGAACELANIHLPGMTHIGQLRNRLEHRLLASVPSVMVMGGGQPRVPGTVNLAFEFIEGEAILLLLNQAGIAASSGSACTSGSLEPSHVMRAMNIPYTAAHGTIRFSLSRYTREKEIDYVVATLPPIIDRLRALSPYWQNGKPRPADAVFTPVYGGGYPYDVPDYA
The experiment in a line: StrepTactinXT pull-down of NifU::TS from leaves co-infiltrated with SN31 and SN166, first purification; anti-Strep and anti-HA Western blots. Background: A western blot detects proteins with antibodies after separation by electrophoresis.

Assay [2] concerns the target B1. Nature of the assay: StrepTactinXT pull-down of NifU::TS from N. benthamiana leaves co-infiltrated with SN31 and SN166, anaerobic non-denaturing extraction; anti-HA Western blot of the eluate.
The target of assay [3] is T2, scar9::GG::NifU::HA (MPP-processed product of the MTP-FAγ51::NifU::HA fusion polypeptide encoded by SN32) (Klebsiella oxytoca, UniProt P05343 1-274).
T2 construct: also called scar9::NifU::HA; processed NifU
T2 sequence: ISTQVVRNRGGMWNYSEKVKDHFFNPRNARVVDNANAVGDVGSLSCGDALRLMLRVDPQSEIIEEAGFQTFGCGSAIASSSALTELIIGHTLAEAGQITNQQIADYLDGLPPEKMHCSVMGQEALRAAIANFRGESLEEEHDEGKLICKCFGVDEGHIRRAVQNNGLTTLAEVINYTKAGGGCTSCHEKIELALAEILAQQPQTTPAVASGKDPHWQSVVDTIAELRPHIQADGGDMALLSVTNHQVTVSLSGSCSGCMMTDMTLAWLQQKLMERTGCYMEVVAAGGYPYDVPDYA
Nature of the assay: StrepTactinXT pull-down of NifS::TS from leaves co-infiltrated with SN231 and SN32; anti-Strep and anti-HA Western blots.

On to B1, for which the binding result in assay [1] is listed as “binds”.

B2: MTP-FAγ51::NifS::HA fusion polypeptide encoded by SN31, unprocessed form (enzyme)
chain: MMAMAVFRREGRRLLPSIAARPIAAIRSPLSSDQEEGLLGVRSISTQVVRNRGGMKQVYLDNNATTRLDPMVLEAMMPFLTDFYGNPSSIHDFGIPAQAALERAHQQAAALLGAEYPSEIIFTSCATEATATAIASAIALLPERREIITSVVEHPATLAACEHLERQGYRIHRIAVDSEGALDMAQFRAALSPRVALVSVMWANNETGVLFPIGEMAELAHEQGALFHCDAVQVVGKIPIAVGQTRIDMLSCSAHKFHGPKGVGCLYLRRGTRFRPLLRGGHQEYGRRAGTENICGIVGMGAACELANIHLPGMTHIGQLRNRLEHRLLASVPSVMVMGGGQPRVPGTVNLAFEFIEGEAILLLLNQAGIAASSGSACTSGSLEPSHVMRAMNIPYTAAHGTIRFSLSRYTREKEIDYVVATLPPIIDRLRALSPYWQNGKPRPADAVFTPVYGGGYPYDVPDYA
notes: Present in the soluble input sample but not detected in the eluate; also called unprocessed NifS; unprocessed MTP-FAγ51::NifS
Consider B2, for which the binding result in assay [2] is “no binding”.

B3: scar9::NifS::TS (MPP-processed product of the MTP-FAγ51::NifS::TwinStrep fusion polypeptide encoded by SN231) (enzyme)
chain: not shown
notes: Bait in the reverse pull-down; the text names scar9::NifS::TS in the eluate; also called MTP-FAγ51::NifS::TS
Turning to B3, in assay [3], the binding result is reported as “binds”.
